Test results reported in patent US20230390369A1.

Target: human PD-L1 on antigen-presenting cells of the Promega J1250 assay (human) (UniProt Q9NZQ7)
Experiment: cell-based or functional assay

Substance: atezolizumab (antibody)
- Luminescence (RLU) at 0.1 µg/mL: 241000 RLU
- Luminescence (RLU) at 20 µg/mL: 1.47e+06 RLU
